The values below come from PMC4421837.

In test [1] the target is K18 tau construct (K18-C291A/C322A/I260C), labelled with AlexaFluor-488 or AlexaFluor-647. As to the kind of experiment: FRET or BRET; single-molecule FRET of species released from washed A488/A647-K18 filaments: pellet washed four times, fresh 50 mM ammonium acetate pH 7.0 added; aliquots diluted into the same buffer and measured on BSA-treated slides, no flow. For orientation: In BRET a luciferase serves as donor, and the signal depends on an acceptor being close.

The target is the same in test [2]. Kind of test: FRET or BRET; single-molecule FRET of oligomers during aggregation: equimolar A488- and A647-labelled construct, 10 uM in all, 50 mM ammonium acetate pH 7.0, 37 °C, undisturbed, heparin (MW 3000) at 1:4 molar ratio; aliquots diluted 50,000-fold into the same buffer with 0.1 mg/ml BSA and 2.5 uM heparin, measured under flow in a microfluidic channel; bursts in the acceptor channel counted as oligomers.

In test [3] the target is K18-P301L, labelled with AlexaFluor-488 or AlexaFluor-647. Described as above.
For test [4], the target named is K18-ΔK280, labelled with AlexaFluor-488 or AlexaFluor-647. The test is described as above.

Values joined by “and” are separate entries in the source; they are usually repeats but may differ in a detail not shown here. Equal entries are not always repeated.

Regarding “K18 tau construct (K18-C291A/C322A/I260C), labelled with AlexaFluor-488 or AlexaFluor-647 (domain or fragment)”, in test [1], the percent of soluble tau that is oligomeric (immediately after dilution of filaments) is 0.6 to 3%. Moreover, in test [2], the oligomer concentration (typical) was found to be 5 nM and the percent of detected soluble species that are oligomers (after 0.5 h) worked out at 0.1%.

In the case of “K18-P301L, labelled with AlexaFluor-488 or AlexaFluor-647 (domain or fragment)”, the peak oligomer concentration relative to K18-wt in test [3] was 4 fold and 3 fold.

In the case of “K18-ΔK280, labelled with AlexaFluor-488 or AlexaFluor-647 (domain or fragment)”, in test [4], the fold more oligomers at peak than for K18 is 50 fold and the percent of detected species that are oligomers (at peak, 0.5 h) turned out to be 4%.
